Source: US20210277104A1 (Janssen / Centocor, published 2021)

Tests used:
recombinant human TNFα [1] = biological target: T1, recombinant human TNFα (human, UniProt P01375 77-233, 125I-labeled in the receptor binding inhibition assay; unlabeled in the EIA); assay: Competition radioligand assay: inhibition of 5 ng/ml 125I-TNFα binding to plate-coated p55-sf2
T1 construct: also called huTNFα; tumor necrosis factor alpha

recombinant human TNFα [2] = biological target: T1, recombinant human TNFα; assay: cell-based or functional assay
recombinant human TNFα [3] = biological target: T1, recombinant human TNFα; assay: inhibition of 125I-TNFα binding to plate-coated p55-sf2; reference TNV118 and TNV14
Experimental: 50:1 of p55-sf2 at 0.5:g/ml in PBS was added to Optiplates to coat the wells during a one-hour incubation at 37° C. Serial dilutions of the eight TNV cell supernatants were prepared in 96-well round-bottom plates using PBS/0.1% BSA as diluent. […] The mixture was preincubated for one hour at RT. […] After 2 hrs at RT, Optiplates were washed three times with PBS-Tween. […] of Microscint-20 was added and the cpm bound determined using the TopCount […].
The concentrations of the TNV mAbs in their respective cell supernatants were first determined by standard ELISA analysis for human IgG.

| Binder | IC50 (read off the curve) (recombinant human TNFα [1]) [ng/mL] | neutralizing TNFα bioactivity (recombinant human TNFα [2]) [fold] | fold better at blocking TNF binding than TNV118 and TNV14 (recombinant human TNFα [3]) [fold] |
| --- | --- | --- | --- |
| TNV148 (antibody, V domains shown) VH: QVQLVESGGGVVQPGRSLRLSCAASGFIFSSYAMHWVRQAPGNGLEWVAFMSYDGSNKKYADSVKGRFTISRDNPKNTLYLQMNSLRAEDTAVYYCARDRGIAAGGNYYYYGMDVWGQGTTVTVSS VL: EIVLTQSPATLSLSPGERATLSCRASQSVYSYLAWYQQKPGQAPRLLIYDASNRATGIPARFSGSGSGTDFTLTISSLEPEDFAVYYCQQRSNWPPFTFGPGTKVDIKR | ~4 | 4 | ~4 |
| TNV196 (antibody, V domains shown) VH: QVQLVESGGGVVQPGRSLRLSCAASGFTFSSYAMHWVRQAPGKGLEWVAFISYDGSNKKSADSVKGRFTVSRDNSKNTLFLQMNSLRAEDTAVFYCARDRGIGAGGNYYYYGMDVWGQGTTVTVSS VL: EIVLTQSPATLSLSPGERATLSCRASQSVYSYLAWYQQKPGQAPRLLIYDASNRATGIPARFSGSGSGTDFTLTISSLEPEDFAVYYCQQRSNWPPFTFGPGTKVDIK | ~4 | 4 |  |
| TNV86 (antibody, human IgG1, V domains shown, Totally human IgG1 kappa from hybridoma, tested as hybridoma supernatant; Variable regions identical to TNV148; also called GenTNV86.14.34; C417A) VH: QVQLVESGGGVVQPGRSLRLSCAASGFIFSSYAMHWVRQAPGNGLEWVAFMSYDGSNKKYADSVKGRFTISRDNPKNTLYLQMNSLRAEDTAVYYCARDRGIAAGGNYYYYGMDVWGQGTTVTVSS VL: EIVLTQSPATLSLSPGERATLSCRASQSVYSYLAWYQQKPGQAPRLLIYDASNRATGIPARFSGSGSGTDFTLTISSLEPEDFAVYYCQQRSNWPPFTFGPGTKVDIK |  |  | ~4 |
